# Source: paper PMC11472067
# Target: histone H2B tagged to mCherry (H2B-mCh) (UniProt P06899)
# Experiment: FRET or BRET; phasor FLIM-FRET in live HeLa nuclei; donor eGFP-HP1α or eGFP-HP1α_(I165E) (stable, endogenous HP1α knocked down), acceptor H2B-mCh transiently transfected; fraction of pixels exhibiting FRET read as chromatin binding
row,Substance,fraction of pixels exhibiting FRET (chromatin binding) [%]
1,eGFP tagged to HP1α dimer mutant I165E (eGFP-HP1α_(I165E)) (from UniProt P45973 1-191) (natural protein),11
2,eGFP tagged to wild type HP1α (eGFP-HP1α) (from UniProt P45973 1-191) (natural protein),20
